# Measurements published in PMC12102759 (2025).
# B1: AMOTL2 peptide 66-81 (Angiomotin-like protein 2), 16-mer library wild type / TNKS ANK (TNKS 12 ANK repeats, residues 174-649) (parent complex)
# chain 1: LQQATRQEPQGQEHQG
# chain 2: TGVPAVSGALRELLEACRNGDVSRVKRLVDAANVNAKDMAGRKSSPLHFAAGFGRKDVVEHLLQMGANVHARDDGGLIPLHNACSFGHAEVVSLLLCQGADPNARDNWNYTPLHEAAIKGKIDVCIVLLQHGADPNIRNTDGKSALDLADPSAKAVLTGEYKKDELLEAARSGNEEKLMALLTPLNVNCHASDGRKSTPLHLAAGYNRVRIVQLLLQHGADVHAKDKGGLVPLHNACSYGHYEVTELLLKHGACVNAMDLWQFTPLHEAASKNRVEVCSLLLSHGADPTLVNCHGKSAVDMAPTPELRERLTYEFKGHSLLQAAREADLAKVKKTLALEIINFKQPQSHETALHCAVASLHPKRKQVTELLLRKGANVNEKNKDFMTPLHVAAERAHNDVMEVLHKHGAKMNALDTLGQTALHRAALAGHLQTCRLLLSYGSDPSIISLQGFTAAQMGNEAVQQILSESTPIRTSD
# B2: TPTE2 peptide 92-107 (Phosphatidylinositol 3,4,5-trisphosphate 3-phosphatase TPTE2), 16-mer library wild type / TLN1 PTB (TLN1 Phosphotyrosine-binding (PTB) domain, residues 309-401) (parent complex)
# chain 1: LADLIFTDSKLYIPLE
# chain 2: GVSFFLVKEKMKGKNKLVPRLLGITKECVMRVDEKTKEVIQEWNLTNIKRWAASPKSFTLDFGDYQDGYYSVQTTEGEQIAQLIAGYIDIILK
# Variants of: B1
# Assay: proteomic peptide phage display deep mutational scan (ProP-PD DMS): M13 P8 16-mer library selected against immobilised GST-tagged bait for four days (rounds), NGS of the eluted pools per day and pseudo-replica; bait immobilised on MaxiSorp plates (10 µg), library pre-cleared on GST, 2 h binding at 4 °C, five washes; one round per day, days 1-4; value from days 2 and 3
row,Variant,screen value
1,chain 1 Q2G,"0.00015 average fractional NGS count over selection days 2 and 3 (reads of this peptide / all reads for the bait, averaged over …"
2,chain 1 Q2M,"0.000757 average fractional NGS count over selection days 2 and 3 (reads of this peptide / all reads for the bait, averaged over …"
3,chain 1 Q2N,"0.000675 average fractional NGS count over selection days 2 and 3 (reads of this peptide / all reads for the bait, averaged over …"
4,chain 1 Q2D,"0.000375 average fractional NGS count over selection days 2 and 3 (reads of this peptide / all reads for the bait, averaged over …"
5,chain 1 Q2T,"0.00025 average fractional NGS count over selection days 2 and 3 (reads of this peptide / all reads for the bait, averaged over …"
6,chain 1 Q2E,"0.00238 average fractional NGS count over selection days 2 and 3 (reads of this peptide / all reads for the bait, averaged over …"
7,chain 1 Q15F,"0.000668 average fractional NGS count over selection days 2 and 3 (reads of this peptide / all reads for the bait, averaged over …"
8,chain 1 Q15D,"0.000198 average fractional NGS count over selection days 2 and 3 (reads of this peptide / all reads for the bait, averaged over …"
9,chain 1 Q15Y,"0.00994 average fractional NGS count over selection days 2 and 3 (reads of this peptide / all reads for the bait, averaged over …"
10,chain 1 Q15S,"0.00112 average fractional NGS count over selection days 2 and 3 (reads of this peptide / all reads for the bait, averaged over …"
11,chain 1 Q15H,"0.00187 average fractional NGS count over selection days 2 and 3 (reads of this peptide / all reads for the bait, averaged over …"
12,chain 1 T5I,"0.000401 average fractional NGS count over selection days 2 and 3 (reads of this peptide / all reads for the bait, averaged over …"
13,chain 1 T5N,"0.000716 average fractional NGS count over selection days 2 and 3 (reads of this peptide / all reads for the bait, averaged over …"
14,chain 1 A4R,"0.000178 average fractional NGS count over selection days 2 and 3 (reads of this peptide / all reads for the bait, averaged over …"
15,chain 1 A4P,"0.00156 average fractional NGS count over selection days 2 and 3 (reads of this peptide / all reads for the bait, averaged over …"
16,chain 1 A4Q,"0.00114 average fractional NGS count over selection days 2 and 3 (reads of this peptide / all reads for the bait, averaged over …"
17,chain 1 A4N,"0.000378 average fractional NGS count over selection days 2 and 3 (reads of this peptide / all reads for the bait, averaged over …"
18,chain 1 A4L,"0.00111 average fractional NGS count over selection days 2 and 3 (reads of this peptide / all reads for the bait, averaged over …"
19,chain 1 G11T,"0.000177 average fractional NGS count over selection days 2 and 3 (reads of this peptide / all reads for the bait, averaged over …"
20,chain 1 E13H,"0.000694 average fractional NGS count over selection days 2 and 3 (reads of this peptide / all reads for the bait, averaged over …"
21,chain 1 E13N,"0.000173 average fractional NGS count over selection days 2 and 3 (reads of this peptide / all reads for the bait, averaged over …"
22,chain 1 Q10N,"0.000239 average fractional NGS count over selection days 2 and 3 (reads of this peptide / all reads for the bait, averaged over …"

row,Variant,screen value
1,chain 1 Q10S,"0.000273 average fractional NGS count over selection days 2 and 3 (reads of this peptide / all reads for the bait, averaged over …"
2,chain 1 P9A,"0.000163 average fractional NGS count over selection days 2 and 3 (reads of this peptide / all reads for the bait, averaged over …"
3,chain 1 Q12F,"0.000217 average fractional NGS count over selection days 2 and 3 (reads of this peptide / all reads for the bait, averaged over …"
4,chain 1 Q12A,"0.000321 average fractional NGS count over selection days 2 and 3 (reads of this peptide / all reads for the bait, averaged over …"
5,chain 1 Q12W,"0.000131 average fractional NGS count over selection days 2 and 3 (reads of this peptide / all reads for the bait, averaged over …"
6,chain 1 E8H,"0.000322 average fractional NGS count over selection days 2 and 3 (reads of this peptide / all reads for the bait, averaged over …"
7,chain 1 E8G,"0.000387 average fractional NGS count over selection days 2 and 3 (reads of this peptide / all reads for the bait, averaged over …"
8,chain 1 E8S,"0.000226 average fractional NGS count over selection days 2 and 3 (reads of this peptide / all reads for the bait, averaged over …"
9,chain 1 L1N,"0.000133 average fractional NGS count over selection days 2 and 3 (reads of this peptide / all reads for the bait, averaged over …"
10,chain 1 L1A,"0.00444 average fractional NGS count over selection days 2 and 3 (reads of this peptide / all reads for the bait, averaged over …"
11,chain 1 L1V,"0.00393 average fractional NGS count over selection days 2 and 3 (reads of this peptide / all reads for the bait, averaged over …"
12,chain 1 L1S,"0.000161 average fractional NGS count over selection days 2 and 3 (reads of this peptide / all reads for the bait, averaged over …"
13,chain 1 Q3D,"0.000274 average fractional NGS count over selection days 2 and 3 (reads of this peptide / all reads for the bait, averaged over …"
14,chain 1 Q3N,"0.000319 average fractional NGS count over selection days 2 and 3 (reads of this peptide / all reads for the bait, averaged over …"
15,chain 1 Q3S,"0.000813 average fractional NGS count over selection days 2 and 3 (reads of this peptide / all reads for the bait, averaged over …"
16,chain 1 Q7H,"0.00159 average fractional NGS count over selection days 2 and 3 (reads of this peptide / all reads for the bait, averaged over …"
17,chain 1 Q7W,"0.000185 average fractional NGS count over selection days 2 and 3 (reads of this peptide / all reads for the bait, averaged over …"
18,chain 1 H14S,"0.000117 average fractional NGS count over selection days 2 and 3 (reads of this peptide / all reads for the bait, averaged over …"
19,chain 1 H14K,"0.00043 average fractional NGS count over selection days 2 and 3 (reads of this peptide / all reads for the bait, averaged over …"
20,chain 1 H14N,"0.000168 average fractional NGS count over selection days 2 and 3 (reads of this peptide / all reads for the bait, averaged over …"
21,chain 1 H14R,"0.00174 average fractional NGS count over selection days 2 and 3 (reads of this peptide / all reads for the bait, averaged over …"
22,chain 1 H14Q,"0.000459 average fractional NGS count over selection days 2 and 3 (reads of this peptide / all reads for the bait, averaged over …"

# Variants of: B2
# Assay: as above
row,Variant,screen value
1,chain 1 I13T,"0.000348 average fractional NGS count over selection days 2 and 3 (reads of this peptide / all reads for the bait, averaged over …"
2,chain 1 I13V,"0.00758 average fractional NGS count over selection days 2 and 3 (reads of this peptide / all reads for the bait, averaged over …"
3,chain 1 I13F,"0.000135 average fractional NGS count over selection days 2 and 3 (reads of this peptide / all reads for the bait, averaged over …"
4,chain 1 I13E,"0.000182 average fractional NGS count over selection days 2 and 3 (reads of this peptide / all reads for the bait, averaged over …"
5,chain 1 I13K,"0.0008 average fractional NGS count over selection days 2 and 3 (reads of this peptide / all reads for the bait, averaged over …"
6,chain 1 I13L,"0.000788 average fractional NGS count over selection days 2 and 3 (reads of this peptide / all reads for the bait, averaged over …"
7,chain 1 I13R,"0.00065 average fractional NGS count over selection days 2 and 3 (reads of this peptide / all reads for the bait, averaged over …"
8,chain 1 D8T,"0.000557 average fractional NGS count over selection days 2 and 3 (reads of this peptide / all reads for the bait, averaged over …"
9,chain 1 D8Q,"0.000205 average fractional NGS count over selection days 2 and 3 (reads of this peptide / all reads for the bait, averaged over …"
10,chain 1 D8Y,"0.000841 average fractional NGS count over selection days 2 and 3 (reads of this peptide / all reads for the bait, averaged over …"
11,chain 1 D8N,"0.00152 average fractional NGS count over selection days 2 and 3 (reads of this peptide / all reads for the bait, averaged over …"
12,chain 1 D8P,"0.000129 average fractional NGS count over selection days 2 and 3 (reads of this peptide / all reads for the bait, averaged over …"
13,chain 1 D8A,"0.000152 average fractional NGS count over selection days 2 and 3 (reads of this peptide / all reads for the bait, averaged over …"
14,chain 1 E16Y,"0.00177 average fractional NGS count over selection days 2 and 3 (reads of this peptide / all reads for the bait, averaged over …"
15,chain 1 E16L,"0.000229 average fractional NGS count over selection days 2 and 3 (reads of this peptide / all reads for the bait, averaged over …"
16,chain 1 E16G,"0.000982 average fractional NGS count over selection days 2 and 3 (reads of this peptide / all reads for the bait, averaged over …"

row,Variant,screen value
1,chain 1 E16M,"0.0125 average fractional NGS count over selection days 2 and 3 (reads of this peptide / all reads for the bait, averaged over …"
2,chain 1 E16H,"0.00501 average fractional NGS count over selection days 2 and 3 (reads of this peptide / all reads for the bait, averaged over …"
3,chain 1 E16A,"0.00143 average fractional NGS count over selection days 2 and 3 (reads of this peptide / all reads for the bait, averaged over …"
4,chain 1 E16F,"0.000466 average fractional NGS count over selection days 2 and 3 (reads of this peptide / all reads for the bait, averaged over …"
5,chain 1 E16S,"0.000917 average fractional NGS count over selection days 2 and 3 (reads of this peptide / all reads for the bait, averaged over …"
6,chain 1 E16I,"0.000286 average fractional NGS count over selection days 2 and 3 (reads of this peptide / all reads for the bait, averaged over …"
7,chain 1 E16V,"0.0105 average fractional NGS count over selection days 2 and 3 (reads of this peptide / all reads for the bait, averaged over …"
8,chain 1 E16Q,"0.000507 average fractional NGS count over selection days 2 and 3 (reads of this peptide / all reads for the bait, averaged over …"
9,chain 1 E16N,"0.00152 average fractional NGS count over selection days 2 and 3 (reads of this peptide / all reads for the bait, averaged over …"
10,chain 1 E16D,"0.00467 average fractional NGS count over selection days 2 and 3 (reads of this peptide / all reads for the bait, averaged over …"
11,chain 1 P14G,"0.000463 average fractional NGS count over selection days 2 and 3 (reads of this peptide / all reads for the bait, averaged over …"
12,chain 1 P14W,"0.000152 average fractional NGS count over selection days 2 and 3 (reads of this peptide / all reads for the bait, averaged over …"
13,chain 1 D3Q,"0.000216 average fractional NGS count over selection days 2 and 3 (reads of this peptide / all reads for the bait, averaged over …"
14,chain 1 D3T,"0.00148 average fractional NGS count over selection days 2 and 3 (reads of this peptide / all reads for the bait, averaged over …"
15,chain 1 D3P,"0.000181 average fractional NGS count over selection days 2 and 3 (reads of this peptide / all reads for the bait, averaged over …"
